The data set concerns the molecule itself. Briefly: native gel or EMSA; recombinant GST-RGS Cdt and GST-RGS Cdt QV-PS purified from bacteria; PAGE under non-denaturing conditions, Western blot. For orientation: In EMSA bound probe runs differently from free probe, usually more slowly.

B1: GST-RGS Cdt (domain or fragment, mouse, UniProt O88566 67-208, looked up)
chain: GRASPDSPLTRWTKSLHSLLGDQDGAYLFRTFLEREKCVDTLDFWFACNGFRQMNLKDTKTLRVAKAIYKRYIENNSVVSKQLKPATKTYIRDGIKKQQIGSVMFDQAQTEIQAVMEENAYQVFLTSDIYLEYVRSGGENTA
notes: RGS domain of mouse conductin/axin2, amino acids 67-208; Cloned into pGEX-6P-1, which as far as I know puts GST at the N-terminus; GST itself can dimerise; also called isolated conductin RGS domain; recombinant GST-RGS Cdt; source: Rosetta (DE3) bacteria, purified (glutathione beads, eluted with free glutathione)
With B1, the binding result is “binds”.

The values are drawn from publication PMC6751202, “An aggregon in conductin/axin2 regulates Wnt/β-catenin signaling and holds potential for cancer therapy” (Nature Communications, 2019).
